Reference: patent US20210332152A1

Key:
[1] = target: human IgG (human); test: SPR (BIAcore T200), peptide immobilised on sensor chip, human IgG injected
[2] = target: human serum-derived γ-globulin (Sigma-Aldrich) (human); test: column chromatography; 0.5 mg synthetic peptide immobilised on NHS-activated column, 1 mg/mL γ-globulin fed, 10% breakthrough

Kd [1]: 14 nM
koff [1]: 0.0048 s⁻¹
kon [1]: 330000 M⁻¹ s⁻¹
dynamic binding capacity (DBC) [2]: 6.9 mg/mL-column
Binder: GPDCAYHRGELVWCTFH [peptide (amino acid sequence: SEQ ID NO: 18) prepared by chemical synthesis]
